test: soluble fraction after stress (log2 fold change); higher = more stays soluble; pooled small domains, quantitative proteomics; conditions: stress: 75 degC
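Note: 20 min heating vs room temperature control held 20 min.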

| Sequence | soluble fraction (log2) |
| --- | --- |
| HMVQDDDPNSVAKFIDQVIESNPEQVEQYRSGKEKVFNFFLGQTMRLSKGKANPDLVSELLKEKLS | 0.0209 |
| HMVQIQDIAFSEFLNELEKGNILDVNIKGDLINGNMLDGKKFKTYAPYDPSLVEKLSKQNVTINVEPVN | 0.109 |
| HMVQMKIRAYELEPNDFFIKQNMTYRVMRIQNGMIYAKHLLNSTPITFGAKSMEFVLWTGKYS | -2.21 |
| HMVQQTEEDVIRDMYVEGKIFTIGEEVTDTYTGVTGKIIRRGTNYVTFMSEDGETYKKWLYEIELA | -0.61 |
| HMVRDGDTFVVPKMDRFARNVEDTLHLVRELTERGVIFQMGHTVYDPHDPWSKLFLTFLAAIAEA | 0.0785 |
| HMVREVGYNAFLAMLDSGAVKEVARDESEGQITFLATDEKGKERVYKTGIWPDDTLTERLNTAGVEFA | 0.351 |
| HMVREVSYDQFLHFVEAKQVGMVYQDGESLMFTLKEDVEKEWGVTAYKTGLWPDANLTDRLLDAGVVFS | -2.32 |
| HMVRGNLAEELLKLREEEGISFQEAGARSGIARSTISQVVNQGLRLKPNQEESLWRVIEEVRGVKER | 0.0321 |
| HMVRSEDLIGLQGRITLATDVETRGFVELSVKGSLLRRPALSLKGPLAKNTAVVVTASNDHTLEVEAL | -0.985 |
| HMVRSKLEIVPVPEDAVVKIAGLKRLTYQAYQNEDVPYMVYKNGYEAQSGTVFMDTDKTLTVTLEESP | -0.0399 |
| HMVSAMLLHKKEILNLLAEEPEALHFASLLRAFGGRHIKNELKQIVDDLVRSGEILRLRGNRYTLPGADN | -1.5 |
| HMVSATKAFVNGGNIVVSSPKATRVAVYNVAGQKVAEQAFAGKATIKASDFAKGIYVLKFNDNTVLKLT | -0.955 |
| HMVSDAELTSQATTAITAYPGTSVEVKEGQAHLSGTFATEADKQAAIDALKKIQDVKDVHDMATV | 0.152 |
| HMVSDSAELSAFVADVIKENAQAVADYKGGKTNVFGWLMGQIIKKSGGKATPAAAAALLKAELEK | -0.0308 |
| HMVSKQVTVNGIQYYQYTVQKSEGFYAISTKFGVTQDDIILANPSTKEGLRVGQEILIPIKT | -2.62 |
| HMVSLLDWAYKQVRRMLFSGDLPQGQKIVVAQLANQLSISPTPVKEALNRLAVEGLLEAVPRRGFQVR | -0.548 |
| HMVSQELIMLGNRIREYRKERGFSQEILAEKSGVSTNTISRIEGGQMAMSVGILQRIVKALGVDANVMLG | -2.32 |
| HMVSQKPKERELWFREQLELAGLRLDPHAISAINETLGNDTGRFPGIIDTLLSTYGAGKKLSYDDVVMFL | -0.638 |
| HMVSRAFEEETVKRAESGNQEAALFALELAIREIEHSYEKSKIIDYFVSKVRLFLDNGVSLERALGIH | 0.196 |
| HMVSRKIENPYWANKEKQHIIAEFFYPDTNKRVTASIMNDGSNRDYEEILRGYSIEQIDANTNRRLEER | 0.566 |
| HMVSSEGLASGIERMLVEFGLETDKGRRFAMWSLLYMLGSAPDLDVAFKDPRDREAARTFMDLLDQANA | -1.57 |
| HMVSSVAAISQMIDEKDRYTSEHSHRVAEYARLIGAHMGFAGEELDSLYRSALLHDIGKIAVPDAILNK | -0.627 |
| HMVSTDPVHLFNLGTANRRAGRASEAITSYRKFMEAAPQHPQVPEARAYIHDMEVLLQERQKSEQAASQLS | 0.143 |
| HMVSTSVTVTGDLNVRADSRADSDLVGALIPGQTVTRLAVLDNGWSKIRFDDGAGTVVEGYVLSEYLQADG | 0.335 |
| HMVSVEINTVERDETFRKMFTSGWKPENRIQALAVEQAKKNGLGRMSEVAGLASFRGIWKQATEQVALEA | -0.213 |
| HMVSVLDHIVGIGAKRRQSLWNHFGTIDKIKAASIDELLKAPGMNRPSAEAVYYFFEAQRQLRGK | -1.22 |

| Sequence | soluble fraction (log2) |
| --- | --- |
| HMVTEKNALTIEIEDLTKRFGNQRESLLPILQEVQLKHGHISDFAQQEIARLLDIHPVEVYGVVTFFSFLS | -3 |
| HMVTGSIYERKGIYYAIVSYYVDGRRKQKSVSTGLSVKGNKRRALEFLENLKRTYETKESMENMD | -3.79 |
| HMVTIEEMMDRLLTRVQRAVNMSFSEFSGEAKEKVEVIVSFLALLELVKQGAVDVLQHENFSDIRIENT | -0.661 |
| HMVTKQKKLVLTIIERSHGHLSAEEIFFRAREEMPNIALGTVYRNLNSLTEEGIVRRITLPGTSDRFDT | -2.91 |
| HMVTKTTYAYERLKREIMDGTLGQGEKLVVNAISQRYQVSPMPIREALLKLEQEGLVQSAPHRGAWVHK | -0.776 |
| HMVTNELFGTRLRAFRKEKGLTIEQLAERVGLSPNYLGDIERGKKLPSMATFIRLVNELDISADEL | -1.52 |
| HMVTQVDYGTFLTRIDEGKVKSVEIQDNQIAFTAIDEAGKENIYVTGKVNDPELVDRLLAADIEDFSQVIP | 0.0911 |
| HMVTTTEAAKMLLVNAGHDVIKDGLTGASWASNTMKLADADGLLASVATKPNDALPRQYAAQMIYN | 0.103 |
| HMVVANTAIKSELQNIVANENKQAPLSDQKIVDQLKQAGFDISRRTVVKYRDALGIPTSRNRKR | -0.28 |
| HMVVEGMQFDRGYLSQYMVTDNEKMVADLENPYILITDKKISNIQEILPLLESILQSSRPLLIIADD | -0.0369 |
| HMVVGYRYVTNVANAVNFRQKPSASSTIITTIPYGTRIGYVEDANSEYARVKYDNMYGYVAKFYLSNYSPP | -3.68 |
| HMVVLNQEQIKFIDHYLQVSKVRYVDVRSELTDHIATAVELKMQDEALDFYEAFKAFIAVNKSQLLQRN | -1.06 |
| HMVVNERIKKLRRSLDLTQQEFADRIGVKRNTIANYEIGRNEPIDSVLELIVREFGVSKQWLLDGTGEMF | -1.43 |
| HMVVPRSFKYEVLAHGGWAGNAQRYQTKEEALHAGLALSRRWTAVEDYRAVPSDDLPNQPAL | -0.231 |
| HMVVPSNPDELKGSFSLAEVASGYGLEVAAILEKAGWPADTDPNVKMRDAANAIGRDSTDIRNAVKALLKS | 0.156 |
| HMVVVPPPATPKPGDVTGDNKINGYDLSILLSNWKRPGATLAQGDLNKDGVVNGLDLSIMLLNWG | 0.274 |
| HMVVYDAELLLNINPGMSYEEVKEMLGDPGMIIAGNDAENSVYRWSTGGISFMGRFENGALIRKSIISP | -0.862 |
| HMVWNVEQIKRAVDQLPDGYRVVFTLYLFEGYDHREIADILGISEGGSKSQFNRAKSKLKEILTAMS | -2.19 |
| HMVWTAGEVVERIRERVGHPATIRELMQVLTIPPEDRHRFRRRIMQLVEAGELIRIRGNRYGLAD | -2.59 |
| HMVYNGYYAKSFNGYVVILNGDEKTVYEYTQIPIHLLPEDIRSSVMSGYYLENETDLYNFLENYS | -3.24 |
| HMWAVDFVLLDKDDQRIGNAVAYRDDRTKGMDEEVYRTVPEEELYASTGIQKQIFNSIYQLMAWKK | -0.0106 |
| HMWDRFGELDSAEEINRIAAAELREGDIDALKVLAEENGLDKDDVEDYIDRLIDELTTPELAAIGKLDV | 0.275 |
| HMWKQISSEAELLPAVRSVIQANPGEAEKLRNGEMAPLEFLTGLVMKKTNGMAVPQIVKTLIKKELKI | 0.0414 |
| HMWKSEAGKKIIESLAQKYNKSNAQIILRWHIQMGYIVIPGARSENHIKENINIFDFKLTNEEINNILKLN | -0.242 |
| HMWMTAQDFRNSSLPWSATTSYNEGQSVRVVDGSNTYYYIAIVKTQPGQSPTTHPTSWREVDA | -1.16 |
| HMWNLPDPVVRPEGNVTVYENFKNTVEVLNREADLVLKFLQNEFGTSANIDDTGRARLTGSFSTDRVSSVI | -0.328 |

| Sequence | soluble fraction (log2) |
| --- | --- |
| HMWSNTAVIDRIRQLHEEGQPISSQSVQVNHKSLYMAAIKRFRGWKRAVEAAGIDYRQIRLR | -2.29 |
| HMWWTPIILRDALFGVQRFEDFQKNLDVSRATLSSRLTRLVDEGLMEKVEYQQHPVRHEYVLTEKGR | -0.234 |
| HMYAGTWTTESGQWKYRQDDGTYAKGWLQDTDGRWYYFDANGRMLSNTATPDGYQVGEDGAWVNH | -0.338 |
| HMYAMTAEDWIVSGNRKYINDDLQGAIADYTKAIEIDPNYAAIYLVRGKAKYELKNYQGAIEDYTKAIE | -1.29 |
| HMYAPKIETIQVPQDKIREVIGTGGKVIREIVETTGAKIDIGDTGLIKVASSDGEAIRAALDWINSIVAE | 0.278 |
| HMYATQLLQLEEMGFFDRAENIRALRATNGNVNAAVERL | -0.202 |
| HMYDASELNKALEEAKKLDLNNYTEESSEALKNAISKAEEALLSKDKETINSALEELNKAMDSL | 0.512 |
| HMYDEAAIRKAVMTFVTDNRDERLDLAKISAVLTSKFGNINFDELGYKRFSSFIDSFPELRRNNTFVSLR | -0.883 |
| HMYDFGVILQKLRKEKGFTQEQLARLIHKESSIISRYEKGLQNPTFETVKEFAAIFNVSMDYLAG | -1.49 |
| HMYEGNEFSSTGMFREDILAITAVHPMREDAVTELLARSNESEETLEMMIDEELLRRVAYGNHNYYMRRFR | -0.611 |
| HMYEHLKALRESLGMTQAEFGESVGVAKSTYNNYEIGARDPKSDFWIAVAQRYGVTIDYLMGFSDDPKKT | -1.76 |
| HMYELSDTEWKIIEQVGLGASNKEIAASLHFSEGTIRNYLSVILDKLSLRDRTQLAILYVKMN | -1.11 |
| HMYEPPTEDEKRVLSLLATRESIVRSDVDRLLGVSQSTANRILKQMIEKYLISQEGTGKNTKYIK | -0.263 |
| HMYESAMSDLHARIMSSDDPHGEIYKMLTQSGPEAKYIQDMYNETSIDRGLHPDDDFEDIIDAMVAELDD | -0.68 |
| HMYEVVPNMKGLSYEQAATALRTAGLEPELSDSIYDDKTRPGTVLEQSPRANTKVKPGRTVYLTVNAF | 0.0171 |
| HMYFFNTFTQRLFDNPELTQEEAIRQMYPGISGVQTAEKLQENFMADVYIQAAIRQEIVVQLIR | -0.485 |
| HMYGSLGEYELAAVQWIYGKGKITTRELSSLIGKGLTLSSKTLRGLAAKGILEWHGNSKNDPSQFYSLP | -2.42 |
| HMYHADLIGLEARSTAGDKLGEVNAVYNFGAGDLIEIKMTDGNLEMLPFTRQYVPTVSIKDGFIIVQM | -1.32 |
| HMYHIYPVADNDTPKLSADRLEYSLSNALLTNKLLNIDEIKKIYNDVILDKDEDGTLELSFKS | 0.127 |
| HMYIDANTALLAKRIQAKNGFLPLSDKSTAEEIYAEFGISKKAFKKALGALYKERLVRIGDEGVVWV | -2.46 |
| HMYINVQNARTIASFRSSLWRMHRDFTNQGYITADGLKTFLEMGKLYEDAGGNDIYHSKLLPEITALEIKY | -2.84 |
| HMYKDVVVPNTVGDSEEKAYQTLSALGLVVNITYDEDASKSDRVVTSQNPTNKTIKEGESVNIVVNKQP | 0.573 |
| HMYKIDFAEGDRVIIKGGAFSGLRATVVSLHPEKGMAKIKVYMFGDRETLVDIEVSQLEKDK | -0.785 |
| HMYKTKVDIAYDMLMERITEGVYKPGEKLVITHISKELGISDIPVREAIRRLESEGYVKILPNQGAIVYD | -0.671 |
| HMYLGRKATLLSSISGEKMGNAEVLADGNLMSIYVKSLTGEPLSYGSTVLIIKHSEDQNFYLVQN | -3.54 |
